According to article PMC5877976:

Tests used:
Assay in all cases: SPR
[1] = target: chronic gp120 with the early-replicating SP (HIV-1 (subtype B))
[2] = target: chronic gp120 with its wild-type chronic SP (HIV-1 (subtype B))
[3] = target: early-replicating gp120 with its wild-type SP (HIV-1 (subtype B))
[4] = target: early-replicating gp120 with the chronic SP (HIV-1 (subtype B))

Substance: tetrameric recombinant soluble DC-SIGN (from UniProt Q9NNX6 1-404) (receptor)
- peak response units (RU) [1]: 308 RU
- peak response units (RU) [2]: 184 RU
- peak response units (RU) [3]: 208 RU
- peak response units (RU) [4]: 131 RU
